The values below come from PMC8431786, “In Search of Monocot Phosphodiesterases: Identification of a Calmodulin Stimulated Phosphodiesterase from Brachypodium distachyon” (International Journal of Molecular Sciences, 2021).

Substrate in the data set: [H][C@@]12COP(=O)(O)O[C@@]1([H])[C@@H](O)[C@H](n1cnc3c(=O)[nH]c(N)nc31)O2
Put plainly: LC-MS/MS of GMP formed, Michaelis-Menten fit. It counts as biochemical, Brachypodium distachyon. The settings on record: 3 mM Tris-HCl pH 8.0, 37 °C, 25 min, 0.5 mM MgCl2 and MnCl2, 0.1% 2-mercaptoethanol, no calmodulin.

B1: BDPDE1 (Brachypodium distachyon) (protein)
chain: MWPASKTQMHMFCLCRLDQPSCLVIGSARSINASTPKELSQNASSREIENRLLRVRRSATTGRSEPLARFNHPIQFQHARPPPAPAHGAHEGKKMAAAAVRRAEELVEREMSGRDASHDAAHALRVRDLALSLAAEQGLSSPDRLLIVELAALLHDIGDYKYTKDNMEDMSIVERFLQDVGLEKGQREEIVSIITGMGFKNEVSGKAAEPTLEFAVVQDADRLDAIGAIGVARCFTYGGSKNSALHDPKVLPRDNLSKEKYMSKEKQTSINHFHEKLFKLKDMMKTEAGKRRAEKRHKFMEDFVAEFYEEWSGRA
notes: GST-BDPDE1 fusion (pGEX-6P-2, N-terminal GST kept), cDNA from leaf and stalk RNA, E. coli BL21(DE3) pLysS, glutathione-Sepharose
As to B1, the Km is reported as 0.1133 mM.
